The values that follow are results of earlier work, collected in paper PMC9254164.

pKd: −log10 of the molar value.

The target of this data set is phospho-ubiquitin (Homo sapiens) (UniProt P0CG47).

Sequence of Parkin (O60260 whole entry): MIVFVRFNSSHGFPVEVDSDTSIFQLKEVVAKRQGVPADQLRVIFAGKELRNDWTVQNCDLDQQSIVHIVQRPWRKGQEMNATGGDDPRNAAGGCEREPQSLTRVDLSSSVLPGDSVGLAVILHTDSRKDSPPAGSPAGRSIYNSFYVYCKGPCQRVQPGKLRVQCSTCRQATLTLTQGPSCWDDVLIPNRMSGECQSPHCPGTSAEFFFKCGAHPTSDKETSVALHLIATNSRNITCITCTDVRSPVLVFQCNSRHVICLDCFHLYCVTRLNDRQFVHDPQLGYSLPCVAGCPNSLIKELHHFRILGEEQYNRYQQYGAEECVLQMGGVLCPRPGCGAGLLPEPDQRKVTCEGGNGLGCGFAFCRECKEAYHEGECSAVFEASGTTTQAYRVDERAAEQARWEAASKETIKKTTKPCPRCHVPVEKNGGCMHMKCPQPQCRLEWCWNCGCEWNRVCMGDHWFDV

As for Parkin (from UniProt O60260), the pKd was 7.70.
